Laboratory results from PMC5900712.

Biological target: T1, YanA86D (monomer) (UniProt Q01842 1-499, A86D)
T1 sequence: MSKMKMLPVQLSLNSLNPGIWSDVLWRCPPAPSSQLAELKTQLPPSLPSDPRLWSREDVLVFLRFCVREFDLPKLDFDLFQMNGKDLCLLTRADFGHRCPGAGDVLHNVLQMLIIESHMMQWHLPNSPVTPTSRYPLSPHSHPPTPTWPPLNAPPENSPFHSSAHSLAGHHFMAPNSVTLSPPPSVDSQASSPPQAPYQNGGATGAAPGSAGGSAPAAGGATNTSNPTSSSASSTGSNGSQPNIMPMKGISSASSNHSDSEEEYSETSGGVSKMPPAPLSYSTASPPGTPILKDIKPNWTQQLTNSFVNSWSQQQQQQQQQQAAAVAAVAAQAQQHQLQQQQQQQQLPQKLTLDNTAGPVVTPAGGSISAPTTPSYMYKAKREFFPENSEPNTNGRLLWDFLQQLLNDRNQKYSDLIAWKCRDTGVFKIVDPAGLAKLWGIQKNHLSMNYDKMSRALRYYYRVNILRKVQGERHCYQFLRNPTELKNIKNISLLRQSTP
Experiment: competition

B1: MHE ETS site 6 (dsDNA)
DNA 1: AAATGCTTAAACAGGGAAATCGTCTTGG
DNA 2: CCAAGACGATTTCCCTGTTTAAGCATTT
B1: no binding.
